Laboratory results as given in the supplement of paper PMC11865577.

Key:
Test in all cases: pull-down binding Z-score (relative to library population); higher = stronger binding
[1] = system: TO-3-N3-2 (biotin conjugate); conditions: RNA library: Library-2
In short: (§1)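 To score binding, a beads-only signal was subtracted, barcoded replicate probes were averaged with the highest and lowest dropped, and the value was converted to a Z-score using the library mean and standard deviation. The input was 1 μg of Cy5- or Cy3-end-labelled RNA library, heat-folded in phosphate/NaCl/KCl buffer and mixed for 60 min at 25 °C with streptavidin beads carrying 100 pmol of biotin-conjugated small molecule. Bound RNA was eluted in hot SDS and hybridised to a DNA barcode microarray at 55.5 °C for 20 h.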

TO-N3 (biotin conjugate) = conditions: RNA library: Library-2
In short: as §1

[2] = system: G-clamp-N3 (biotin conjugate); conditions: RNA library: Library-1 (pre-miRNA loops + repeats)
In short: as §1

[3] = system: TO-N3-2 (biotin conjugate); conditions: RNA library: Library-2
In short: as §1

[4] = system: TO-3-N3 (biotin conjugate); conditions: RNA library: Library-2
In short: as §1

Sequence	pull-down binding Z-score [1]	pull-down binding Z-score (TO-N3 (biotin conjugate))	pull-down binding Z-score [2]	pull-down binding Z-score [3]	pull-down binding Z-score [4]
CAGAGCUGCAGCUGCUCCACCCUG [hsa-mir-6730]	0.319	1.12	-0.915	1.42	0.563
AAGGGUGUAUGAGAGAUCAACCCUU [hsa-mir-5697]	-0.0393	1.07	2.33	1.19	0.544
AGCAAGGUGCGUCGUAUCUUGCU [hsa-mir-4804]	-0.581	-0.702	0.816	-0.798	-0.499
GCCGCGGAAGAAGGGGAAGCGC [hsa-mir-6720]	0.61	1.61	2.21	1.86	1.46
CUGGGGUUGGAAUGUGACCCCA [hsa-mir-4654]	-0.171	0.541	-0.709	0.687	0.425
AGAGUCCUGUUGUUGUAAGAUAGUGUCU [hsa-mir-550a-3]	-0.265	-0.515	0.441	-0.0681	-0.56
UAGGCUGUGCAGGUCCCAAUGGGCCUA [hsa-mir-26a-1]	-0.0454	0.151	1.56	0.528	0.169
AAUUUUUUUUUAAUUUAAAAAAUU [hsa-mir-3938]	0.127	-1.13	0.843	-1.36	-0.808
CAAGUAAAAGGAAUUUUCAUUUUCCAGCCCCUAAUUG [hsa-mir-6739]	-0.399	-0.811	-1.23	-0.628	-0.655
ACUAGAUUUGAAUCCAGACCUUUAGU [hsa-mir-5584]	0.3	0.715	-0.461	-0.111	0.878
CAGGCUGGUCUCAAACUCCUGGUCUG [hsa-mir-1285-1]	-0.352	-0.217	-0.288	-0.123	-0.202
UCUGUUUUAAGUAACAGA [hsa-mir-7705]	-0.214	-1.32	0.244	-1.85	-0.812
AACUCCUGCGAGUCCCUGGAGUU [hsa-mir-1258]	-0.146	-0.0874	0.214	-0.163	0.16
AUGGUUAAUGUUCCACAGCCA [hsa-mir-5190]	0.157	0.0767	-0.723	0.372	-0.134
CCCUGGGGAGCUGCUGCAGGCAGCAGGUGGGCGGGACGCCAGCAGGCUGUCUAGCUGUUCCCAUGAUGG [hsa-mir-6843]	0.49	1.81	2.14	2.24	0.919
CUUGAUUUAAUGUCAUACAAUUAAG [hsa-mir-124-2]	-0.157	-0.928	-0.895	-0.734	-0.687
GGUGCAGUCAGUCCUAGCUC [hsa-mir-3135b]	0.0356	0.224	-1.49	1.06	-0.343
AAAACUUUCAUCCAAGUCAUU [hsa-mir-378d-2]	-0.238	0.164	-0.902	-0.609	0.382
GAGUGGUCGGGUCGACUGAACC [hsa-mir-4726]	0.454	1.23	-0.197	1.34	0.829
UGGUUUGACACAGAGCUAAAUCA [hsa-mir-5007]	0.0372	0.596	-0.866	-0.172	0.00148
GAAAACUUUGGAGAAAAAUUUUC [hsa-mir-4659a]	-0.258	-1.04	-0.714	-0.857	-0.765
CGAGCCGCUUCCUCACGGCUCG [hsa-mir-4665]	-0.853	-1.04	0.651	-0.871	-0.622
UUUGCCAUUACUUUCAGUGGCAAA [hsa-mir-548aq]	-0.894	-1.48	0.135	-1.11	-0.975
AUCAUCUCUCCCUUGGAU [hsa-mir-3683]	-0.257	-0.733	1.39	-0.446	-0.626
UGGUUUCACUA [hsa-mir-3713]	-0.427	0.378	-1.64	-0.526	0.624

Sequence	pull-down binding Z-score [1]	pull-down binding Z-score (TO-N3 (biotin conjugate))	pull-down binding Z-score [2]	pull-down binding Z-score [3]	pull-down binding Z-score [4]
CAGCUACACAAGCUG [hsa-mir-631]	-0.33	-0.53	1.64	-0.859	-0.0598
GACUUGAGAUUAUAGUC [hsa-mir-3685]	-0.13	-0.0763	-0.369	-0.546	0.268
UGUGGCAGUGGCAGAGGUCGCUACA [hsa-mir-6856]	0.0517	0.704	1.12	1.13	0.436
UAUUGGGCCAAUUCCCCCAAUG [hsa-mir-4781]	-0.791	-1.38	-1.57	-1.12	-1.13
UUUUGCAGUUGAAAGUAAUGGCAAAG [hsa-mir-548ao]	0.00731	-0.0635	2.64	0.259	-0.235
CUGUGAAUCCAAGAUCCACA [hsa-mir-4527]	-0.489	-0.39	-1.57	-0.241	-0.439
CAGUACUGGUCUUAGACUG [hsa-mir-554]	0.172	0.368	0.887	0.25	0.477
GUUAGUUGUGGACACAUACUAAC [hsa-mir-3912]	-0.735	-1.19	-0.0574	-1.25	-0.764
AUUCUGAUGAUCACCUAGCCAGAAU [hsa-mir-5583-2]	0.566	1.45	-0.301	0.317	1.52
GGAUGGGAGACCUGACCCAUCC [hsa-mir-5195]	-0.208	-0.0467	0.74	-0.332	-0.0606
GUUUCUAAAAAAAUAAAAAGUUAAAAAAAUUUAUGUUAACGUGUAAUGUGUUUACUAAUUUUUUUUUUUUUUUUUGGAGAC [hsa-mir-3908]	0.349	-0.136	-1.28	-0.771	-0.27
GCAGAGCAGGACGCCGCUGCUGC [hsa-mir-8072]	0.0817	0.817	-0.0779	1.65	0.701
CUUGAUUUAAUGUCUAUACAAUUAAG [hsa-mir-124-3]	-0.0577	-0.159	-0.412	-0.45	-0.0185
UCAGGAUCUACUCAUGUCGUCUUUGG [hsa-mir-573]	-0.199	-0.165	-1.01	0.472	-0.404
CAGGGGUUCUGAUAAACCCUUC [hsa-mir-6738]	-0.3	0.458	-0.182	0.161	0.622
CUUUCCUCAGCUGAUUUCUUUCUGGGGAGAG [hsa-mir-5186]	-0.279	-0.52	-0.72	-1.08	-0.144
AAGUGGAGCAGGAAUGCGCUUUUCUCCACUG [hsa-mir-5187]	0.27	0.567	1.93	0.231	0.299
GCUUAUGGGGAUAUUGUGGUUGAUCUGUUCUAUCCAGAUGAC [hsa-mir-1261]	0.0944	0.676	0.854	0.626	0.283
CUCACGUGUGCCUGCCUGUGAG [hsa-mir-339]	-0.521	-0.555	-0.747	1.55	-1.01
GGGCAGGGAGUCAGAGGGGACCGCCC [hsa-mir-4740]	1.93	1.98	2.09	1.24	2.19
UUUUCAGUUCCUGAGAUC [hsa-mir-4287]	-0.202	-0.128	-1.15	-0.441	-0.0736
UAAUAACUGACAAACAGACAAUUG [hsa-mir-4774]	-0.145	-0.376	-0.873	-0.303	-0.343
CAAGGGCUCUCCUGAAAGGACAGUAGAGCCCUUG [hsa-mir-4776-1]	-0.0552	1.18	0.88	-0.109	1.31
GCAGCACUGUGCUGGGGAUGUUGC [hsa-mir-1301]	0.078	1.04	1.24	0.858	1.08
UCCAGGAUCUGGGUUUUGAGGUCUUGG [hsa-mir-4309]	0.267	0.673	0.525	0.345	0.835

Sequence	pull-down binding Z-score [1]	pull-down binding Z-score (TO-N3 (biotin conjugate))	pull-down binding Z-score [2]	pull-down binding Z-score [3]	pull-down binding Z-score [4]
AGUGAGUUGAUUACUUCUCACU [hsa-mir-4676]	-0.441	-0.26	-0.179	-0.222	-0.0959
GAAAUAGGCUGCGAAGAUAACAGUAUUUC [hsa-mir-3942]	-0.17	-0.979	0.773	-0.482	-0.872
AGGUUUGUGUCCAAUACAGUCCACACCU [hsa-mir-3200]	-0.367	-0.879	-0.861	-0.572	-0.745
UUUUCGCUUUAUAUGUGACGAAAC [hsa-mir-495]	0.125	-0.787	0.0902	-0.531	-0.605
UCUGCUUUAUUUCAUCAAAGCAGA [hsa-mir-4773-1]	-0.676	-1.36	-0.484	-1.41	-0.916
GGGGCUGGCUGGGUCUGGUAGUGGGCAUCAGCUGGCCCU [hsa-mir-1207]	1.51	2.6	2	1.22	2.53
AGUGAGGCGUCGGCUGUGUUUCU [hsa-mir-2110]	0.174	0.741	-0.519	1.03	0.387
ACCAAAAAUGAUAUGGGU [hsa-mir-7977]	0.11	-0.532	1.5	-0.381	-0.344
CACGAGAUUGGGUUGUGCAGAGGCUGACACUUG [hsa-mir-5004]	0.0781	-0.0226	0.93	0.63	-0.363
UAGAGGGUAAAAUUAAUAACCUUCUA [hsa-mir-628]	0.114	-0.152	0.0533	-0.888	0.214
UUCACAGACUCUCCAAAAGUCUGAA [hsa-mir-4670]	-0.404	-0.543	-1.33	-0.533	-0.362
GGCGGUGAAGCUCC [hsa-mir-4532]	-0.285	-0.104	0.399	0.727	-0.22
GCCUCUUCUCCAUGAGAGGC [hsa-mir-885]	-0.322	-1.07	1.74	-1.37	-0.689
CCAUGUGGUUGCGAGGUAUGAGUAAAACAUGG [hsa-mir-218-1]	-0.174	-0.567	-0.319	0.275	-0.697
CCAUUAUUUUUAAUAAUUAUAAUAAUGG [hsa-mir-548s]	-0.237	-0.233	0.705	-1.2	0.0929
CGGACGUUGCUCUCUACCCCG [hsa-mir-1247]	0.262	0.839	-0.101	1.03	0.389
UGCUGUUGCUGUGAAAGCUGA [hsa-mir-6823]	0.304	0.559	-0.619	0.705	0.045
GGCCGUUUGAGAUGUCC [hsa-mir-3674]	-0.132	-0.259	-0.962	0.0919	-0.181
GCAGCCAGUCCUGUCUCACCGC [hsa-mir-6812]	-0.105	0.14	-0.666	1.08	-0.19
CUUGGGCCCAUUCCUUUCCUUACCCUAC [hsa-mir-6798]	0.218	0.541	-1.1	0.758	0.268
CGUUCCAAUGCGACACCUCUAGAGUGUCAUCCCCUAGAAUGUCACCUUGGAAAG [hsa-mir-4432]	-0.104	-0.0844	-1.26	-0.0713	-0.119
CUCAGCAUGUUGAGCCCUGUCUCUGGGGAGCUGAC [hsa-mir-6505]	-0.142	0.597	1.48	0.878	0.254
GAGUCAGAAAAACUAC [hsa-mir-601]	-0.0131	0.484	-1.28	0.271	0.125
UUUCUGUUGUCUAAAAGAAAAGAAA [hsa-mir-527]	-0.186	-0.383	0.0533	-0.575	-0.325
ACUACUGUGCUCUGAGAAGCAGU [hsa-mir-301b]	-0.255	0.643	1.42	0.325	0.599
